The target of this assay is T1, calnexin (dog (endogenous in MDCK), UniProt P24643 21-593).
T1 sequence (looked up): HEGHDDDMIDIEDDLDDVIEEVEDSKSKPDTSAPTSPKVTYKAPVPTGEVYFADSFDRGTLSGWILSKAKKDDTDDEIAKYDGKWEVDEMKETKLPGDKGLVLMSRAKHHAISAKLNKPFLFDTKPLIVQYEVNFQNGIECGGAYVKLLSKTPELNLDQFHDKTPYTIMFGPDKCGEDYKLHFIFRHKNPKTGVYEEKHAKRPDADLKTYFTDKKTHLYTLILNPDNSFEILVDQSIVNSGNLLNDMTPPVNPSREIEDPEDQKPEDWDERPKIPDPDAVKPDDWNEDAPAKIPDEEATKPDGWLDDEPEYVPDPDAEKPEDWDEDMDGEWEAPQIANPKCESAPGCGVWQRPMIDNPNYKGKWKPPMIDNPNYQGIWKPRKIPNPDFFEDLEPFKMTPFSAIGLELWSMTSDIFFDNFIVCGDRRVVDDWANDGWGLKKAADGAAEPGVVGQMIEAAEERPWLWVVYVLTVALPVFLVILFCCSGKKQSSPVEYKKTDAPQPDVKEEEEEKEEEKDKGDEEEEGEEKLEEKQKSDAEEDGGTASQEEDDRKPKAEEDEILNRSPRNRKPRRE
Nature of the assay: co-IP.

The record followed here is publication PMC3186216 (Biochemistry, 2010).

B1: YFP-linked Na,K-ATPase β2 subunit (human), wild type (natural protein, UniProt P14415 1-290, looked up)
chain: MVIQKEKKSCGQVVEEWKEFVWNPRTHQFMGRTGTSWAFILLFYLVFYGFLTAMFTLTMWVMLQTVSDHTPKYQDRLATPGLMIRPKTENLDVIVNVSDTESWDQHVQKLNKFLEPYNDSIQAQKNDVCRPGRYYEQPDNGVLNYPKRACQFNRTQLGNCSGIGDSTHYGYSTGQPCVFIKMNRVINFYAGANQSMNVTCAGKRDEDAENLGNFVMFPANGNIDLMYFPYYGKKFHVNYTQPLVAVKFLNVTPNVEVNVECRINAANIATDDERDKFAGRVAFKLRINKT
modifications: N-glycans at all eight N-glycosylation sites; only the high-mannose form coprecipitated with calnexin
B1: the “normalised amount coprecipitated, fold of that of YFP-β1” value was around 7 fold.
